From article PMC7079100

B1: Numb15 (ssRNA)
RNA: UAGGUAGUAGUUUUA
B2: Numb8 (ssRNA)
RNA: GUAGUAGU
B3: Numb5 (ssRNA)
RNA: GUAGU

Assays:
MSI2-RRM1 [1] = biological target: T1, MSI2-RRM1 (Homo sapiens, UniProt Q96DH6 21-111); assay: fluorescence polarization; 2 nM RNA; highest affinity of the three; Kd only in figure; FP at room temperature, 2 nM 3' FAM RNA; buffer, salt and pH not given (previously described methods)
MSI2-RRM1 [2] = biological target: T1, MSI2-RRM1; assay: fluorescence polarization; 2 nM RNA; lower affinity than Numb15; Kd only in figure; FP at room temperature, 2 nM 3' FAM RNA; buffer, salt and pH not given (previously described methods)

T1 sequence (Q96DH6 21-111): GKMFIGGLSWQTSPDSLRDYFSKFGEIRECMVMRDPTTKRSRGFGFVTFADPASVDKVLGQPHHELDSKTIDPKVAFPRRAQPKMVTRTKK

Row | Binder | binding result (MSI2-RRM1 [1]) | binding result (MSI2-RRM1 [2])
1 | B1 | binds | –
2 | B2 | – | binds
3 | B3 | – | binds
